Test results as given in patent US20140302021A1 (ONCLAVE THERAPEUTICS, published 2014).
No end group written: not given here.

Target: T1, CGGHEDT (SEQ ID NO: 17) conjugated to Ovalbumin (also: conjugated to ovalbumin)
T1 construct: Peptide-carrier conjugate used as the ELISA antigen
T1 peptide: CGGHEDT
Assay: competitive binding ELISA
Text: A competitive binding ELISA has been established to measure binding of humanized 2A4 to its antigen (CGGHEDT (SEQ ID NO: 17) when conjugated to Ovalbumin) compared to the reference standard.

binding result: binds
B1: humanized 2A4 antibody (IgG1, kappa isotype version of murine 2A4) (antibody, V domains shown)
VH: EVQLVESGGGLVQPGGSLRLSCAASGFTFNTYAMYWIRQAPGKGLEWVARIRSKSNNYAIYYADSVKDRFTISRDDSKNSLYLQMNSLKTEDTAVYYCARPYSDSFAYWGQGTLVTVSS
VL: DVVMTQSPLSLPVTPGEPASISCRSSQSLVHSTGNTYLHWYLQKPGQSPQLLIYKVSNRFSGVPDRFSGSGSGTDFTLKISRVEAEDVGVYYCSQSTHVPFTFGGGTKVEIKR
modifications: N-linked glycosylation at the consensus sequence, positions 299 to 301
notes: Human IgG1 of G1m(3) allotype, kappa; also called h2A4; humanized 2A4 drug substance
